Experimental data reported in a protein production outcome set (Wang et al. 2014).

Assay: label from the status in PepcDB records

Row | Sequence | protein production
1 | MDGVLKGFFVVSIVLLIGYILGKTKALGPEGSKVLSTLTFMVGLPCLMFSAIASRHINDVLSATGLISVVTAVAVMLVFTVAGTIARWGVRRTTIGALSVGIVNSTNLGVPLSLYILGSATYVTPIMLFQLAIVTPIALTILDLTDPAGKKVSVWRTLSIPFRNPVTVAAILGVLVSALGIQLPSLVLDPLALVAQLAVPLMLIIFGMSLHGLSVRPGIDDRVPTTIAVILKSAIQPVLAWVLAAFVFQLDPFSTFVVTACAILPTGQNVVLYSVRYGVGQGIAQSTAVFTSILAVPLLLGAAWLFG | failed
2 | MRWRADFLSAWAEALLRKAGADEPSAKAVAWALVEADLRGVGSHGLLRLPVYVRRLEAGLVNPSPTLPLEERGPVALLDGEHGFGPRVALKAVEAAQSLARRHGLGAVGVRRSTHFGMAGLYAEKLAREGFVAWVTTNAEPDVVPFGGREKALGTNPLAFAAPAPQGILVADLATSESAMGKVFLAREKGERIPPSWGVDREGSPTDDPHRVYALRPLGGPKGYALALLVEVLSGVLTGAGVAHGIGRMYDEWDRPQDVGHFLLALDPGRFVGKEAFLERMGALWQALKATPPAPGHEEVFLPGELEARRRERALAEGMALPERVVAELKALGERYGVPWRDDA | not failed
3 | MTNNPLGRIIPQQPPIEPQSDAHVLKSRLEWGEPAFTILDVRDRSTYNDGHIMGAMAMPIEDLVDRASSSLEKSRDIYVYGAGDEQTSQAVNLLRSAGFEHVSELKGGLAAWKAIGGPTEGIIESRTPAGADDYNVVSRMQNHLENQKKEV | failed
4 | MYKLMIADDEPLIRRGIKQLIDLSSLQIGEIYEASTGEEALKVFEEFKPEIVLMDINMPKIDGLSVAKKIKSINPDTKIAIITGYNYFDYAQTAIKIGVEDYILKPISKSDVSEIIVKLVSSLQKERKDKEIEKVLEKITTVDTQDNIAKNNYKELIQNIIEESYTDSQFTLSVLSEKLDLSSGYLSIMFKKNFGIPFQDYLLQKRMEKAKLLLLTTELKNYEIAEQVGFEDVNYFITKFKKYYQITPKQYREMVLKNENE | not failed
5 | MADHSLQRRLAAIVVADVVGYSRLMEADEAATLANLRELRSGVIEPAVMRHHGRIFKVMGDGFLIEFGSAVEAVAAALEMQRAATAVEASGDRRLLLRVGVNLGDVIDDGSDVLGDDVNVAARLQTQAAPGGICISANVHGEIDGKISDRFFDAGERYLKNLTRPVHVWHWPDALQSILPLPECPSIAVLPFTNMSGDEADAPFVDGLTEDLITDLSRTAGLFVIARNSVYVYKGKPVDVRLVAQELGVRYVLEGSARRAMGRVRINAQLVDTLAGQHLWADRFDRTVEDVFELQDEVNAKIVEALVGRLTIPTPRNRPKNFEAYDLCVRARLLTEESPQTEREAYMLLQRAVELEPSYAEALGLLAYNRWLAWTHFGEPEDPNRRMAATFAQKAVDLDPNDAGCRYVLGTILAYERRWEESEAAFAKALELDPNHADTWAAMSDMSVLDGRVADGLAQIEKALRLNPYPACWYLCHLGQAQYAARDYEAAAATLRRKDTYRTNSRKFLAATLAQLGHREEARRESELFLIAHPHFTIGHWLSSQPLRDASVRDHFVDGFRKAGLPEM | failed
6 | MQVIAFIAPLIDKGMDPLTGVPIRQEVPRLMERTFQENQAETYVLFLINLDRFKLVNDSLGEGYGDQVLQTLVRRLLWQLPNQQWIARVSGDEFIACAAIKGELPKKETLATYISSIIQQPFQVDEVQFTMTASIGAAVYPMDGKSVEMIWNSLERALRHAKARGGNCVSWFCQELKDEWIHPFRLENDLRRAVENQELEHHHHHH | failed
7 | SYTFDTTDHKSPCCNFQWYIFRKQGESRIITCELFGVIVSLENRWDWLEFMIDDSLQLTAFRCPKRDKLGMETLLQLGDVAQVTGNWKLSNGAFLNATKIAIHNNPDVECKYWLQQIQKYKSKVCELEIPSDWIRRQQRAHNLKTDAVLSFSAQVSTAAATCWKLWKKHFNQGGKISLQRLWEVIQRENCPKMQELSSCRRNQIVQLLIHLGYLIPLSKEPETYVLLIDDILDKQVMQIFNQNIASKTLSLREVAYRLEEYFHVEEISLERVEESILRLAYKEKVEQV | not failed
8 | MSSLAQREERSSDGREPARAWAVTIVVLGLLLVIWPFVRTPPLPIAPAYAHLLGAWLGAVVALAAMARALRPHRRRGPPDA | failed
9 | MSRDRLYTWAGLWRSPSSSWEALRLEDDQAESQLRAPDERSGLPYQLDYRLRWDADWHLREAVFHVESETGVRKLHLLADGRGHWQDGDGEALPAFDGCLDIDIWPSPFTNTFPIRRLGLADGQRAEIRALYIEAPALEPRSMRQAYTRLDASHYLYENLEGSAFKAVLLVDEQGLVIDYPGLFQRL | not failed
10 | MKKTTLALSALALSLGLALSPLSATAAETSSATTAQQMPSLAPMLEKVMPSVVSINVEGSTTVNTPRMPRNFQQFFGDDSPFCQEGSPFQSSPFCQGGQGGNGGGQQQKFMALGSGVIIDADKGYVVTNNHVVDNATVIKVQLSDGRKFDAKMVGKDPRSDIALIQIQNPKNLTAIKMADSDALRVGDYTVAIGNPFGLGETVTSGIVSALGRSGLNAENYENFIQTDAAINRGNSGGALVNLNGELIGINTAILAPDGGNIGIGFAIPSNMVKNLTSQMVEYGQVKRGELGIMGTELNSELAKAMKVDAQRGAFVSQVLPNSSAAKAGIKAGDVITSLNGKPISSFAALRAQVGTMPVGSKLTLGLLRDGKQVNVNLELQQSSQNQVDSSSIFNGIEGAEMSNKGKDQGVVVNNVKTGTPAAQIGLKKGDVIIGANQQAVKNIAELRKVLDSKPSVLALNIQRGDSTIYLLMQ | failed
11 | MFSPQASAAYDDLHEGYATYTGSGYSGGAFLLDPIPSDMEITAINPADLNYGGVKAALAGSYLEVEGPKGKTTVYVTDLYPEGARGALDLSPNAFRKIGNMKDGKINIKWRVVKAPITGNFTYRIKEGSSRWWAAIQVRNHKYPVMKMEYEKDGKWINMEKMDYNHFVSTNLGTGSLKVRMTDIRGKVVKDTIPKLPESGTSKAYTVPGHVQFPELEHHHHHH | not failed
12 | MMYSKFISFLKQIPLPICGLILGLISLGNLLYSKGYPILGNSYDMLGLFLMFLILLKIVLAMKHTISTLNDPIVASVSPTFTMSLMVLSVFLKRLSGFSLLANVTWWTALILHLILMMYFIYLHVLPKELKIHDVYPSWFITFVGIGVISATSPDFGLEVGKVVVWITLLFYFILLPIVMHRVFILRKMHKSLLPLITIITAPGSLGLVGYLTVVEAKSKIFVIFLFILSQAIYFITLGLLTKLLRSAFYPSYAAFTFPLVISATAVNLTSKLSVFQFLNLELLANMEILIAIAIVTYVLIRYCIFLGSKLVQIMSEKYSPESI | failed
13 | MLSIIEQIKQGQLWDFHGGIHPEENKTISNQAAIQQAGIPSQLVLPLKQHIGGKGDILVSVGDVVLKGQPLTQGNIAMCVPVHAPTSGRITAIEPRTVAHPSGLTDLCIVIESDGEDRWVEDRTPIDDFSSVDPIDLIERIRQSGISGMGGAGFPTSRKIQSGIGKAEMLIINAAECEPYITADDRLMREHAEEIIDGIKILQHILTPKVCIIAIEDNKPEAVKALNQAVTDHDNIIIRVIPTKYPSGGSRQLTKIITGQEVPANGRSTDIGVIVQNVGTVFAIKRAICDAEPLIERIVTLTGNSMSTPGNLWVRLGTCIDYLMELVGYKADKKHPRIIMGGSLMGFTLPHQQVPITKITNCIITPDKKELPLYNHEMACIRCSSCADACPTSLLPQQLYWYSKSEDYDKCNEYNLNDCIECGACAYVCPSEIPLVQYYRQAKSEIYSRKQDALAAERAKLRFEEKNARLERDKLERENKFKQAAENRRKEMKTENKGGDDAIAAAIARVKAQKAAQESGVAAPKPAVAAAIARAKAKQAEAAKSETSVPDNSEMAKLREERKQQARERKAKLAEETTATDSDKSEKKDAVAAAIARAKARKAAQAEEKTETPVASEEKNQNTEGSADPKKAAVAAAIARAKARKAAQAEEKTETPVTSEEKNQNTEGSADPKKAAVAAAIARAKARKAAQAEEKTETPVASEEKNQNTEGSADPKKAAVAAAIARAKARKAAQAEEKTETPVTSEEKNQNTEGSADPKKAAVAAAIARAKARKATQAEEKTETPVTSEEKNQNTEESADPKKAAVAAAIARAKARKAAQENNKKEE | failed
14 | MKKIAVFADVQNLYYTVRQAYGCHFNYAALWADISKRGEIVHAFAYAIDRGDSKQQQFQQILRNLGFTVRLKPYIQRSDGSAKGEWDVGITIDIMDFAPQVDEVVLASGDGDFDMLLDRVISKHGVEAVAYGVPGLTANSLIRAASRYVPIEGALL | not failed
15 | MVSWHPSVYLAQRTSKAAKNILAAPPLILSISFIFLILIGTLILKLPISTTVPVTWSQSLFNATSAVTVTGLVVFDVGTVYTTFGQVVIALLIQLGGLGIMTFAIVTLLALGAKIGFLQNTIAKEAYNSTNTATLVTTAKSVLIFSLCVELIGMIILAVSWSDELGWRTSLFHGFFYTISAFNNAGIGLSPDSLMPYVEDPIINLTITALFIIGGLGFTVWIDLWRKKRWDKLTTYSKMMIIGTISINAIAVLAIYCIEYNNPKTLVPLSETGKWLASWFQAVTPRTAGFNTLAMNELEDATTAIMLMLMFIGGGSLSTASGIKVVTFMVLILATYGYLRRYDFVYVYHRGISKDTISKALALAMISVGTIWASIFFLLLSENASMIDIIFEAVSAFGTVGLSRGLTSNLTVTGQFIIIFLMFMGRLGPLTLAYFLASPKSKRIRYPETKLTIG | failed
16 | MRKSLKMTIGIGLILSCFGLILVGIGLSSGGIDKLQVKDDQAPKKEVQFDNIQSLDLDLSVRNIKIESSQDQHFKLTYYKKLDEEISHKVQHQKLNLKQKEKFRIHFFVLSDFFNWFHQDDTNTVTLAIPKNVQLKDVSIKNNVGDITIKNQQASKITVHQNTGNLNIYNSQIAKGKVSSDVGNIAIQNSSLSNIDVVDHTGDISAENLTVLNLVRMTNNIGNTNVSLSPQSAQATIVSTKTDVGHTDISHQLLQGYSGKNRLAVKGDTGNIQIK | failed
17 | MLQAGTKKFLREYGSTCAPLFLALGVCLICCLPAACPKENFIDENAISVSRVPVITGMLGELHMDTRISQYTRVVRGRRSVGSESIAVYVNAAFESSVVLANHLIYVLREKENMACDTNFYFFNDTSKDWPIPDSFVRAAIVINVTSFHTNNLCFNVFGANGMQPNQDLFNLAVAIAEKWRFNIDVLCQNPYISFSTSRPIYEHYFLALQTALVAPLRYQPWYKMRSRGISLLAISTEKSERRTKSSYGYNMAAAHEQLIATLSYLHERFHHSTSVWIPLSVDQYVEYDVIQFATILFVASLLSTCYSIYEVEGFSFSPCAALVSATGLAALVSTLNFGTAGFFVSSGVLTVGLGAFSWDMSWGAINAVVLCLLIILQPVAGLVMGFGATLQLQFIHVRCRKWHVLLIGAILSWIVLVALTEVMKAKLFDTETTAGVYFSFFLYPNALWISSRLIRSTLGA | failed
18 | MTLTALNAISPIDGRYVNKTRALSPYFSEFALTYYRLMVEIKWFESLAANDTIPEVPALDNKARKFLSDLISNFNESEAEKIKEFEKQTNHDVKAVEYYLQDKFQENEQLKSCVAFIHFACTSEDINNLAYALMIKQAIAQVIQPTIAEIMGSITLLGKQHADVAMLSRTHGQPATPTTMGKELVNFVARLKRPQQQLAEVLIPAKFNGAVGNYNAHVAAYPEVDWRKHCANFVTSLGLSFNAYTTQIEPHDGIAEVSQIMVRINNILLDYTQDIWSYISLGYFKQKTIAEEVGSSTMPHKVNPIDFENAEGNLGLSNALFIHFANKLTQSRMQRDLSDSTVLRNLGVAFSYSLIAYHSVAKGNDKLQINKSALQKDLSENWEVLAEAIQTVMRRYNEPNAYEQLKELTRGQMIDAENLKKFIKTLSIPEEAKAELMKLTPETYTGLATQLVKAFS | not failed
